Results: patent publication US7960513B2, “Antibody against a human ADAM protease” (Monash University, priority 2004, dated 2011)

Target: T1, EphA3/ephrin-A5 complex (Homo sapiens, UniProt P29320+P52803)
T1 construct: Fc fusion proteins of the ephrin-A5 and EphA3 extracellular domains fused to the hinge and Fc region of human IgG1 were produced as described; expressed in transfected cells; host or cells: EphA3/HEK293 cells; ephrin-A5-Fc added as soluble pre-clustered protein
T1 sequence (P29320 21-983): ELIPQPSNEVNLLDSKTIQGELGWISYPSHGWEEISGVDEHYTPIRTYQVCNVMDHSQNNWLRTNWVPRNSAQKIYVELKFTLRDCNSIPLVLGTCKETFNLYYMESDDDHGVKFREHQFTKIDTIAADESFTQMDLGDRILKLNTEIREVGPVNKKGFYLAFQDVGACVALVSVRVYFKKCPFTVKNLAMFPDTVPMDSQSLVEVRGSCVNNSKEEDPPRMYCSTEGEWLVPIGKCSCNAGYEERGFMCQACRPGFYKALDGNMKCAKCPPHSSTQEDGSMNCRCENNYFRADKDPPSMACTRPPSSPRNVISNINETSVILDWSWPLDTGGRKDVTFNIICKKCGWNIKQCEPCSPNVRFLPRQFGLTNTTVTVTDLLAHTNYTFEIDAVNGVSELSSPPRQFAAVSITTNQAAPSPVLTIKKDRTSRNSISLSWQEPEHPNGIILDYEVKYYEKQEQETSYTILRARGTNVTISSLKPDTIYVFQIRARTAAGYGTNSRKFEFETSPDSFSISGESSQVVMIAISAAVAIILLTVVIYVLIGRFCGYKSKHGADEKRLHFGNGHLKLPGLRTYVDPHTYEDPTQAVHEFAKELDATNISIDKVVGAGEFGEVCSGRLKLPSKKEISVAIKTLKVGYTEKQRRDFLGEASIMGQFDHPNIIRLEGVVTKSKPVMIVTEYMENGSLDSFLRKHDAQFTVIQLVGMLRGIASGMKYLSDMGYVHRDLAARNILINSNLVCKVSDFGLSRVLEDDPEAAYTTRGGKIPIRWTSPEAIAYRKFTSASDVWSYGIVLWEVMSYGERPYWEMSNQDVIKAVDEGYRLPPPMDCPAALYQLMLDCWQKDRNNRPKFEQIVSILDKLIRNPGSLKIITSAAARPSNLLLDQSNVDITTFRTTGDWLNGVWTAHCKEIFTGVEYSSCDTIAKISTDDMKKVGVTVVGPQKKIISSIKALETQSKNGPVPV
T1 sequence (P52803 21-203 limits assumed): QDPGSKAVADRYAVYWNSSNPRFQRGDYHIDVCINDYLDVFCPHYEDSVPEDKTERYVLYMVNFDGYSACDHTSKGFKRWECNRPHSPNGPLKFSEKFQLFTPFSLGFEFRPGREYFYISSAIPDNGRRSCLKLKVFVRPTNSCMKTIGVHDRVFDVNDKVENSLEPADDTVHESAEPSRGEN
Experiment: Co-immunoprecipitation from transfected cells treated with pre-clustered ephrin-A5-Fc
Assay type: cell-based
Conditions: EphA3/293 cells, pre-clustered ephrin-A5-Fc 10 min
Procedure: FIG. 4. Mutation of acidic residues in the ADAM10 Cys-rich domain affects binding to EphA3/ephrin-A5 and cleavage of ephrin-A5. • A. In vitro binding of mutant ADAM10D+C to EphA3/ephrin-A5. ADAM10D+C[EEE-A] containing Alanine substitutions of Glu573, Glu578, Glu579 (lanes 1-4) or ADAM10D+C[RDD-A] (Ala substitutions of Arg525, Asp526, Asp527, lanes 5-8) were incubated alone (lanes 1, 5), or together with EphA3-Fc (lanes 2, 6), ephrin-A5-Fc (lanes 3, 7), or EphA3-Fc and ephrin-A5 (lanes 4, 8). Complexed proteins were extracted with Protein-A-Sepharose beads and analysed as in FIG. 2. • B. Binding of wild-type and mutant ADAM10ΔMP to EphA3 in cells. EphA3/293 cells were transfected with HA-ADAM10ΔMP or HA-ADAM10ΔMP [EEE-A]. Parental and transfected cells were treated for 10 min with or without pre-clustered ephrin-A5-Fc and lysed. Anti-HA and anti-EphA3 immunoprecipitates, and total cell lysates were analysed by Western blotting with indicated antibodies. • C. Ephrin-A5-Fc cleavage in cells expressing wt and 3A mutant ADAM10. EphA3/293 cells were transfected with full length, wild-type (wt) ADAM10, dominant-negative ADAM10ΔMP, or ADAM10 bearing alanine (3A) or 3 lysine (3K) substitutions of Glu573, 578, 579. Following exposure to clustered (+) or non-clustered ? ephrin-A5 Fc, cleaved ephrin was recovered and analysed by Western Blot as described in FIG. 1c. […]

B1: ADAM10Δpro: cell-surface ADAM10Δpro incorporating the EEE-A amino acid substitutions (protein)
chain: SGQPICGNGMVEQGEECDCGYSDQCKDDCCFDANQPEGKKCKLKPGKQCSPSQGPCCTAQCAFKSKSEKCRDDSDCAKEGICNGFTALCPASDPKPNFTDCNRHTQVCINGQCAGSICAKYDLAACTCASSDGKDDKELCHVCCMKKMAPSTCASTGSLQWSKQFSGRTITLQPGSPCNDFRGYCDVFMRCRLVDADGPLARLKKAIFSPQLYENIAEWIVAHWWAVLLMGIALIMLMAGFIKICSVHTPSSNPKLPPPKPLPGTLKRRRPPQPIQQPPRQRPRESYQMGHMRR
modifications: left off: small tags and cut ends
notes: cell-surface ADAM10Δpro incorporating the EEE-A amino acid substitutions
interaction with the EphA3/ephrin-A5 complex in cells: significantly inhibited
